Source: the supplement of paper PMC10567573

B1: TNXB (parent)
chain: LLQRELMVPGTRHSAVLRDLRSGT

Variants of: B1
Test: protein stability index of a GFP-peptide fusion (GPS, HEK-293T) (PSI 1-6); higher = more stable
Details: c terminus: a fixed tail appended
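Further: lentivirally expressed fusions sorted by FACS into six bins by GFP to DsRed ratio, PSI derived from sequencing read proportions per bin multiplied by bin number.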

Variant | protein stability index
LLQRELMVPGTRHSAVLRDLMSGT | 1.99
LLQRELMVPGTRHSAVLRDLASGT | 2.73
LLQRELMVPGTRHSAVLRDLPSGT | 2.85
LLQRELMVPGTRHSAVLRDLNSGT | 2.34
LLQRELMVPGTRHSAVLRDLWSGT | 2.75
LLQRELMVPGTRHSAVLRDLVSGT | 1.88
LLQRELMVPGTRHSAVLRDLSSGT | 2.06
LLQRELMVPGTRHSAVLRDLQSGT | 2.01
LLQRELMVPGTRHSAVLRDLISGT | 2.13
LLQRELMVPGTRHSAVLRDLYSGT | 2.12
LLQRELMVPGTRHSAVLRDLHSGT | 3.21
LLQRELMVPGTRHSAVLRDLTSGT | 2.18
LLQRELMVPGTRHSAVLRDLESGT | 2.58
LLQRELMVPGTRHSAVLRDLCSGT | 2.06
LLQRELMVPGTRHSAVLRDLLSGT | 1.99
LLQRELMVPGTRHSAVLRDLFSGT | 1.95
LLQRELMVPGTRHSAVLRDLKSGT | 3.03
LLQRELMVPGTRHSAVLRDLGSGT | 2.43
LLQRELMVPGTRHSAVLRDLDSGT | 2.69
LLQRELMVPGTRHSAVLRDWRSGT | 2.3
LLQRELMVPGTRHSAVLRDKRSGT | 3.02
LLQRELMVPGTRHSAVLRDRRSGT | 2.86
LLQRELMVPGTRHSAVLRDNRSGT | 3.53
LLQRELMVPGTRHSAVLRDQRSGT | 2.89

Variant | protein stability index
LLQRELMVPGTRHSAVLRDFRSGT | 1.92
LLQRELMVPGTRHSAVLRDMRSGT | 2.25
LLQRELMVPGTRHSAVLRDCRSGT | 2.85
LLQRELMVPGTRHSAVLRDERSGT | 3.37
LLQRELMVPGTRHSAVLRDGRSGT | 3.37
LLQRELMVPGTRHSAVLRDTRSGT | 2.66
LLQRELMVPGTRHSAVLRDYRSGT | 2.27
LLQRELMVPGTRHSAVLRDPRSGT | 2.53
LLQRELMVPGTRHSAVLRDSRSGT | 3.38
LLQRELMVPGTRHSAVLRDIRSGT | 2.52
LLQRELMVPGTRHSAVLRDDRSGT | 3.65
LLQRELMVPGTRHSAVLRDARSGT | 2.97
LLQRELMVPGTRHSAVLRDVRSGT | 2.63
LLQRELMVPGTRHSAVLRDHRSGT | 2.7
LLQRELMVPGTRHSAVLRDLRSHT | 2.31
LLQRELMVPGTRHSAVLRDLRSQT | 3.73
LLQRELMVPGTRHSAVLRDLRSNT | 2.58
LLQRELMVPGTRHSAVLRDLRSAT | 2.31
LLQRELMVPGTRHSAVLRDLRSPT | 2.14
LLQRELMVPGTRHSAVLRDLRSWT | 2.09
LLQRELMVPGTRHSAVLRDLRSMT | 2.22
LLQRELMVPGTRHSAVLRDLRSVT | 2.13
LLQRELMVPGTRHSAVLRDLRSLT | 1.81
LLQRELMVPGTRHSAVLRDLRSIT | 2.35

Variant | protein stability index
LLQRELMVPGTRHSAVLRDLRSKT | 2.92
LLQRELMVPGTRHSAVLRDLRSYT | 2.14
LLQRELMVPGTRHSAVLRDLRSDT | 3.38
LLQRELMVPGTRHSAVLRDLRSFT | 2.82
LLQRELMVPGTRHSAVLRDLRSTT | 2.43
LLQRELMVPGTRHSAVLRDLRSST | 2.94
LLQRELMVPGTRHSAVLRDLRSCT | 2.36
LLQRELMVPGTRHSAVLRDLRSET | 3.05
LLQRELMVPGTRHSAVLRDLRSRT | 2.72
LLQRELMVPGTRHSAVLYDLRSGT | 2.07
LLQRELMVPGTRHSAVLQDLRSGT | 2.48
LLQRELMVPGTRHSAVLVDLRSGT | 2.51
LLQRELMVPGTRHSAVLMDLRSGT | 2.12
LLQRELMVPGTRHSAVLNDLRSGT | 2.71
LLQRELMVPGTRHSAVLTDLRSGT | 2.43
LLQRELMVPGTRHSAVLPDLRSGT | 2.75
LLQRELMVPGTRHSAVLWDLRSGT | 1.8
LLQRELMVPGTRHSAVLSDLRSGT | 2.61
LLQRELMVPGTRHSAVLRELRSGT | 2.78
LLQRELMVPGTRHSAVLRFLRSGT | 2.18
LLQRELMVPGTRHSAVLRWLRSGT | 1.73
LLQRELMVPGTRHSAVLRMLRSGT | 2.39
LLQRELMVPGTRHSAVLRYLRSGT | 2.23
LLQRELMVPGTRHSAVLRSLRSGT | 2.31

Variant | protein stability index
LLQRELMVPGTRHSAVLRQLRSGT | 2.29
LLQRELMVPGTRHSAVLRRLRSGT | 1.69
LLQRELMVPGTRHSAVLRGLRSGT | 2.31
LLQRELMVPGTRHSAVLRPLRSGT | 2.69
LLQRELMVPGTRHSAVLRHLRSGT | 2.26
LLQRELMVPGTRHSAVLRILRSGT | 1.71
LLQRELMVPGTRHSAVLRLLRSGT | 1.75
LLQRELMVPGTRHSAVLRKLRSGT | 2.07
LLQRELMVPGTRHSAVLRVLRSGT | 1.71
LLQRELMVPGTRHSAVLRTLRSGT | 2.46
LLQRELMVPGTRHSAVLRALRSGT | 2.27
LLQRELMVPGTRHSAVLRCLRSGT | 1.49
LLQRELMVPGTRHSAVLRNLRSGT | 2.06
LLQRELMVPGTRHSAVLRDLRSGC | 1.77
LLQRELMVPGTRHSAVLRDLRSGQ | 2.49
LLQRELMVPGTRHSAVLRDLRSGM | 2.29
LLQRELMVPGTRHSAVLRDLRSGD | 2.5
LLQRELMVPGTRHSAVLRDLRSGY | 2.64
LLQRELMVPGTRHSAVLRDLRSGL | 2
LLQRELMVPGTRHSAVLRDLRSGA | 2.7
LLQRELMVPGTRHSAVLRDLRSGP | 2.54
LLQRELMVPGTRHSAVLRDLRSGI | 1.72
